Earlier results on one substance are cited in publication PMC2913173.

This series has as its target Bcl-2 (Homo sapiens) (UniProt P10415). As to the kind of experiment: fluorescence polarization. For orientation: In fluorescence polarisation assays a small probe gives low polarisation when free and higher when bound to something large.

Sequence of Bcl-2 (Homo sapiens) (P10415 whole entry): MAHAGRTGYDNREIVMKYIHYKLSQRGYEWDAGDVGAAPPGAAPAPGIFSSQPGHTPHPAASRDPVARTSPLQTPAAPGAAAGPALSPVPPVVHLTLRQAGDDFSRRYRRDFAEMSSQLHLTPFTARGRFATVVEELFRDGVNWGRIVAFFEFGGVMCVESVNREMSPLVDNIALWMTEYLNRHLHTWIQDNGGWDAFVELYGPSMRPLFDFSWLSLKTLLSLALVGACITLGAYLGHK

Broadly, the Kd is the free concentration of one partner at which half of the binding sites on the other are occupied at equilibrium, for simple one-to-one binding. Consider Bak 72-87 (from UniProt Q16611), for which the Kd is 1.6 µM.
